The results in this text go back to publication PMC8058060, “The transcriptional activator of the bfp operon in EPEC (PerA) interacts with the RNA polymerase alpha subunit” (Scientific Reports, 2021).

In this assay the target is T1, His6-RpoA (alpha subunit of the RNA polymerase) (UniProt P0A7Z4 1-329).
T1 construct: RNA polymerase alpha subunit RpoA; also called His-tagged RpoA; α-subunit of the RNAP; source: E. coli BL21 (DE3) containing pET28-RpoA, purified as described previously
Nature of the assay: pull-down; 50 µg each of purified MBP or MBP-PerA and His6-RpoA in interaction buffer (2X: 100 mM NaH2PO4, 600 mM NaCl, 40 mM imidazol, 0.5% NP-40, 20% glycerol, pH 8.0), 30 min on ice, then 50 µl amylose resin 2 h at ~4 °C; Western blot with anti-MBP antibody or anti-His6-HRP probe. As to conditions: both partners purified. Background: In western blotting, separated proteins are transferred to a membrane and probed.

T1 sequence (P0A7Z4 whole entry): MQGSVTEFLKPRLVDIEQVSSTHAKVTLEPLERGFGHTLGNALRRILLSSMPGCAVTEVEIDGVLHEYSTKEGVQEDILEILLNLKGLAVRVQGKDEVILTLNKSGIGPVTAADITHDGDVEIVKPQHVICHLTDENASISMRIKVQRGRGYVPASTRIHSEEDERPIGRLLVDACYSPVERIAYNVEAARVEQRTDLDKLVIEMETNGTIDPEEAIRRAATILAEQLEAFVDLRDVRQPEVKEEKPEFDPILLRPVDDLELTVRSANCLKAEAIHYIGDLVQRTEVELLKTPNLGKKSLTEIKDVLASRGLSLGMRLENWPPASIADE

B1: MBP-PerA fusion (natural protein)
chain: MLTSKKEMQSSENKQEENLALLLTNYISYQNIVIFTGGNQFKIRNKKEFTEYTIESNSLFFLAKNTHWDMEIVGIDNSNPYRKIIIDDALIKLLHSISSDDSCYVKKKIFTANLNEMQLNIVSNIITDIKYSGNNKKIFKILYLLSFFNDYNDIVNVILSASSKSIVDRVIKVIELDISKNWKLGDVSSSMFMSDSCLRKQLNKENLTFKKIMLDIKMKHASLFLRTTDKNIDEISCLVGFNSTSYFIKVFKEYYNTTPKKYNGVYSITQGTLP
notes: 274 residues; pMalC2xa derivative; also called BfpT; MBP-PerA chimera; source: expressed from pMALT2; over-expressed in EPEC E2348/69 ΔperA with 0.3 mM IPTG, in soluble lysate, for the co-purification
Regarding B1, the binding result is “binds”.
